Measurements reported in publication PMC3646895, “The Carboxy-Terminal αN Helix of the Archaeal XerA Tyrosine Recombinase Is a Molecular Switch to Control Site-Specific Recombination” (PLoS ONE, 2013).
Values joined by “and” are separate entries in the source; they are usually repeats but may differ in a detail not shown here. Identical values can stand only once.

B1: XerA-ΔC, XerA deleted for the last 13 amino-acids (αN helix), N-terminal His-tagged (domain or fragment, Pyrococcus abyssi, UniProt Q9V1P5 1-273, looked up)
chain: MEEREERVRDDTIEEFATYLELEGKSRNTVRMYTYYISKFFEEGHSPTARDALRFLAKLKRKGYSTRSLNLVIQALKAYFKFEGLDSEAEKLKTPKMPKTLPKSLTEEEVRRIINAAETLRDRLILLLLYGAGLRVSELCNLRVEDVNFEYGVIVVRGGKGGKDRVVPISESLLSEIKRYLESRNDDSPYLFVEMKRKRKDKLSPKTVWRLVKKYGRKAGVELTPHQLRHSFATHMLERGIDIRIIQELLGHSNLSTTQIYTKVSTKHLKEAV
notes: XerA tyrosine recombinase, Pyrococcus abyssi, deleted for the last 13 amino-acids corresponding to the αN helix alone; In the assay it is covalently linked to the cleaved DNA half site; also called ΔαN helix mutant; source: recombinant, obtained by PCR, expressed and purified following the procedure described for the wild-type enzyme

Experiments:
[1] = biological target: XerA recombinase from Pyrococcus abyssi, C-terminal His-tagged (Pyrococcus abyssi) (UniProt Q9V1P5); assay: AUC; sedimentation velocity, 25°C, 0.3 mM (11.8 mg.ml^-1) XerA in 20 mM Tris-HCl pH 7.5, 1 M NaCl, 42,000 rpm; c(s) distribution and self-association model with fitted non-ideality; dimer to monomers
[2] = biological target: the molecule itself; assay: SDS-PAGE of covalent protein-DNA complexes (assemblies resistant to thermal denaturation); 40 pmol XerA protein with 25 nM 5' end-labeled left half recombination site, 30 mM Tris pH 7.5, 50 mM NaCl, 2 h at 65°C, quenched in Laemmli buffer, 10 min at 100°C, 12% SDS-PAGE, phosphorimaging

Molecule	Kd [1] [µM]	stoichiometry N [1]	fold reduction of the high molecular weight complexes against XerA [2] [fold]
XerA recombinase from Pyrococcus abyssi, C-terminal His-tagged (from UniProt Q9V1P5 1-286) (enzyme)	> 100	2 and 4	–
B1	–	–	4
